Sequences and labels used below:
B1: VL17 with VH23: anti-human tau(pS422) antibody; VH SEQ ID NO: 55, VL SEQ ID NO: 37 (antibody, V domains shown)
VH: EVQVLESGGGLVQPGGSLRLSCAVSGFSLSSNAINWVRQAPGKGLEWVGYIAVSGNTYYADSVKGRFTISKDNSKNTVYLQMNSLRAEDTAVYYCGKSNIWGQGTLVTVSS
VL: DIQMTQSPSSLSASVGDRVTITCRSSQSVRTNKLAWFQQKPGQPPKRLIYSASTLDFGVPSRFSGSGSGTEFTLTISSLQPEDFATYYCLGYFDCSIADCVAFGGGTKVEIK
modifications: humanized sequence
B2: VL19 with VH23: anti-human tau(pS422) antibody; VH SEQ ID NO: 55, VL SEQ ID NO: 38 (antibody, V domains shown)
VH: EVQVLESGGGLVQPGGSLRLSCAVSGFSLSSNAINWVRQAPGKGLEWVGYIAVSGNTYYADSVKGRFTISKDNSKNTVYLQMNSLRAEDTAVYYCGKSNIWGQGTLVTVSS
VL: AQVMTQSPSSLSASVGDRVTITCRSSQSVRTNKLAWFQQKPGQPPKRLIYSASTLDFGVPSRFSGSGSGTEFTLTISSLQPEDFATYYCLGYFDCSIADCVAFGGGTKVEIK
modifications: humanized sequence
B3: VL19 with VH01: anti-human tau(pS422) antibody; VH SEQ ID NO: 46, VL SEQ ID NO: 38 (antibody, V domains shown)
VH: QQLVESGGGLVQPGGSLRLSCAASGFSLSSNAINWVRQAPGKGLEWVGYIAVSGNTYYASWAKGRFTISRDNSKNTLYLQMNSLRAEDTAVYYCGKSNIWGQGTLVTVSS
VL: AQVMTQSPSSLSASVGDRVTITCRSSQSVRTNKLAWFQQKPGQPPKRLIYSASTLDFGVPSRFSGSGSGTEFTLTISSLQPEDFATYYCLGYFDCSIADCVAFGGGTKVEIK
modifications: humanized sequence
B4: VL19 with VH22: anti-human tau(pS422) antibody; VH SEQ ID NO: 54, VL SEQ ID NO: 38 (antibody, V domains shown)
VH: EVQLLESGGGLVQPGGSLRLSCAASGFSLSSNAINWVRQAPGKGLEWVGYIAVSGNTYYADSVKGRFTISRDNSKNTLYLQMNSLRAEDTAVYYCGKSNIWGQGTLVTVSS
VL: AQVMTQSPSSLSASVGDRVTITCRSSQSVRTNKLAWFQQKPGQPPKRLIYSASTLDFGVPSRFSGSGSGTEFTLTISSLQPEDFATYYCLGYFDCSIADCVAFGGGTKVEIK
modifications: humanized sequence
B5: VL19 with VH19: anti-human tau(pS422) antibody; VH SEQ ID NO: 53, VL SEQ ID NO: 38 (antibody, V domains shown)
VH: QQLVESGGGLVQPGGSLRLSCAASGFSLSSNAINWVRQAPGKGLEWVGYIAVSGNTYYADSVKGRFTISKDNSKNTLYLQMNSLRAEDTAVYYCGKSNIWGQGTLVTVSS
VL: AQVMTQSPSSLSASVGDRVTITCRSSQSVRTNKLAWFQQKPGQPPKRLIYSASTLDFGVPSRFSGSGSGTEFTLTISSLQPEDFATYYCLGYFDCSIADCVAFGGGTKVEIK
modifications: humanized sequence
B6: VL17 with VH01: anti-human tau(pS422) antibody; VH SEQ ID NO: 46, VL SEQ ID NO: 37 (antibody, V domains shown)
VH: QQLVESGGGLVQPGGSLRLSCAASGFSLSSNAINWVRQAPGKGLEWVGYIAVSGNTYYASWAKGRFTISRDNSKNTLYLQMNSLRAEDTAVYYCGKSNIWGQGTLVTVSS
VL: DIQMTQSPSSLSASVGDRVTITCRSSQSVRTNKLAWFQQKPGQPPKRLIYSASTLDFGVPSRFSGSGSGTEFTLTISSLQPEDFATYYCLGYFDCSIADCVAFGGGTKVEIK
modifications: humanized sequence
B7: VL17 with VH03: anti-human tau(pS422) antibody; VH SEQ ID NO: 48, VL SEQ ID NO: 37 (antibody, V domains shown)
VH: QSVLESGGGLVQPGGSLRLSCAVSGFSLSSNAINWVRQAPGKGLEWVGYIAVSGNTYYASWAKGRFTISRDNSKNTLYLQMNSLRAEDTAVYYCGKSNIWGPGTLVTVSS
VL: DIQMTQSPSSLSASVGDRVTITCRSSQSVRTNKLAWFQQKPGQPPKRLIYSASTLDFGVPSRFSGSGSGTEFTLTISSLQPEDFATYYCLGYFDCSIADCVAFGGGTKVEIK
modifications: humanized sequence
B8: VL19 with VH24: anti-human tau(pS422) antibody; VH SEQ ID NO: 56, VL SEQ ID NO: 38 (antibody, V domains shown)
VH: EVQLLESGGGLVQPGGSLRLSCAASGFSLSSNAINWVRQAPGKGLEWVGYIAVSGNTYYADSVKGRFTISKDNSKNTVYLQMNSLRAEDTAVYYCGKSNIWGQGTLVTVSS
VL: AQVMTQSPSSLSASVGDRVTITCRSSQSVRTNKLAWFQQKPGQPPKRLIYSASTLDFGVPSRFSGSGSGTEFTLTISSLQPEDFATYYCLGYFDCSIADCVAFGGGTKVEIK
modifications: humanized sequence
B9: VL17 with VH24: anti-human tau(pS422) antibody; VH SEQ ID NO: 56, VL SEQ ID NO: 37 (antibody, V domains shown)
VH: EVQLLESGGGLVQPGGSLRLSCAASGFSLSSNAINWVRQAPGKGLEWVGYIAVSGNTYYADSVKGRFTISKDNSKNTVYLQMNSLRAEDTAVYYCGKSNIWGQGTLVTVSS
VL: DIQMTQSPSSLSASVGDRVTITCRSSQSVRTNKLAWFQQKPGQPPKRLIYSASTLDFGVPSRFSGSGSGTEFTLTISSLQPEDFATYYCLGYFDCSIADCVAFGGGTKVEIK
modifications: humanized sequence
B10: VL19 with VH18: anti-human tau(pS422) antibody; VH SEQ ID NO: 52, VL SEQ ID NO: 38 (antibody, V domains shown)
VH: QQLVESGGGLVQPGGSLRLSCAASGFSLSSNAINWVRQAPGKGLEWVGYIAVSGNTYYADSVKGRFTISRDNSKNTLYLQMNSLRAEDTAVYYCGKSNIWGQGTLVTVSS
VL: AQVMTQSPSSLSASVGDRVTITCRSSQSVRTNKLAWFQQKPGQPPKRLIYSASTLDFGVPSRFSGSGSGTEFTLTISSLQPEDFATYYCLGYFDCSIADCVAFGGGTKVEIK
modifications: humanized sequence
B11: VL17 with VH00: anti-human tau(pS422) antibody; VH SEQ ID NO: 11, VL SEQ ID NO: 37 (antibody, listed as Oryctolagus cuniculus, V domains shown)
VH: QSVEESGGRLVTPGTPLTLTCTVSGFSLSSNAINWVRQAPGKGLEWIGYIAVSGNTYYASWAKGRFTISKASTTVDLKMTSPTAEDTGTYFCGKSNIWGPGTLVTVSL
VL: DIQMTQSPSSLSASVGDRVTITCRSSQSVRTNKLAWFQQKPGQPPKRLIYSASTLDFGVPSRFSGSGSGTEFTLTISSLQPEDFATYYCLGYFDCSIADCVAFGGGTKVEIK
modifications: humanized sequence
B12: VL17 with VH02: anti-human tau(pS422) antibody; VH SEQ ID NO: 47, VL SEQ ID NO: 37 (antibody, V domains shown)
VH: QSVLESGGGLVQPGGSLRLSCAASGFSLSSNAINWVRQAPGKGLEWVGYIAVSGNTYYASWAKGRFTISRDNSKNTLYLQMNSLRAEDTAVYYCGKSNIWGPGTLVTVSS
VL: DIQMTQSPSSLSASVGDRVTITCRSSQSVRTNKLAWFQQKPGQPPKRLIYSASTLDFGVPSRFSGSGSGTEFTLTISSLQPEDFATYYCLGYFDCSIADCVAFGGGTKVEIK
modifications: humanized sequence

Results on twelve molecules are retold here after patent US10251952B2, “Humanized anti-tau(pS422) antibody brain shuttles and use thereof” (Hoffmann-La Roche Inc., priority 2014, dated 2019).

In the assay the target is human tau(pS422) (Homo sapiens, UniProt P10636, S739X). Kind of assay: BIAcore kinetic screening and kinetic rates of humanized VH/VL combinations. The format is binding. Particulars: 25 °C; VL17 or VL19 with VH variants. On the procedure:
In the following Table characteristics of the different humanized variants of the rabbit light chain variable domain in combination with the humanized heavy chain variable domains VH14 and VH20, respectively, are shown. Binding partner was human tau(pS422).
Kinetic screening was performed according to Schraeml et al. (Schraeml, M. and M. Biehl, Methods Mol. Biol. 901 (2012) 171-181) on a BIAcore 4000 instrument, mounted with a BIAcore CM5 sensor. The BIAcore 4000 instrument was under the control of the software version V1.1. A BIAcore CM5 series S chip was mounted into the instrument and was hydrodynamically addressed and preconditioned according to the manufacturer's instructions. The instrument buffer was HBS-EP buffer (10 mM HEPES (pH 7.4), 150 mM NaCl, 1 mM EDTA, 0.05% (w/v) P20). An antibody capture system was prepared on the sensor surface. A polyclonal goat anti-human antibody with human IgG-Fc specificity (Jackson Lab.) was immobilized at 30 μg/ml in 10 mM sodium acetate buffer (pH 5) to spots 1, 2, 4 and 5 in the instrument's flow cells 1, 2, 3 and 4 at 10,000 RU using NHS/EDC chemistry. In each flow cell the antibodies were captured on spot 1 and spot 5. Spot 2 and spot 4 were used as reference spots. The sensor was deactivated with a 1 M ethanolamine solution. Humanized antibody derivatives were applied at concentrations between 44 nM and 70 nM in instrument buffer supplemented with 1 mg/ml CMD (carboxymethyldextrane). The antibodies were injected at a flow rate of 30 μl/min for 2 minutes. The capture level (CL) of the surface-presented antibodies was measured in rel. response units (RU). The analytes in solution, phosphorylated human tau protein, non-phosphorylated human tau protein and the phosphorylated human tau mutant protein T422S were injected at 300 nM for 3 minutes at a flow rate of 30 μl/minute. The dissociation was monitored for 5 minutes. The capture system was regenerated by a 1 minute injection of 10 mM glycine buffer, pH 1.7 at 30 μL/minute over all flow cells. Two report points, the recorded signal shortly before the end of the analyte injection, denoted as binding late (BL) and the recorded signal shortly before the end of the dissociation time, stability late (SL), were used to characterize the kinetic screening performance. Furthermore, the dissociation rate constant kd (1/s) was calculated according to a Langmuir model and the antibody/antigen complex half-life was calculated in minutes according to the formula ln(2)/(60*kd). The molar ratio (MR) was calculated according to the formula MR=(Binding Late (RU))/(Capture level (RU))*(MW(antibody)/(MW(antigen)). In case the sensor was configured with a suitable amount of antibody ligand capture level, each antibody should be able to functionally bind at least to one analyte in solution, which is represented by a molar ratio of MR=1.0. Then, the molar ratio is also an indicator for the valence mode of analyte binding. The maximum valence can be MR=2 for an antibody binding two analytes, one with each Fab valence.
In another embodiment, kinetic rates were determined at 25° C. and 37° C. using the same experimental setup, but using multiple concentration series of each analyte in solution at 0 nM (buffer), 1.2 nM, 3.7 nM, 11.1 nM, 33.3 nM, 100 nM and 300 nM. From the concentration-dependent binding behavior the kinetic data was calculated using the BIAcore evaluation software according to the manufacturer's instructions and a Langmuir 1.1 model with RMAX global.
Take B1: the “kd” value was determined as 0.0007 s⁻¹ and the “t/2 diss” value turned out to be 17 min.

For the molecule B2, the “kd” value is 0.00057 s⁻¹ and the “t/2 diss” value was 20 min.

As to B3, the “kd” value is 0.0019 s⁻¹ and the “t/2 diss” value is reported as 6 min.

As to B4, the “kd” value came to 0.0021 s⁻¹ and the “t/2 diss” value turned out to be 6 min.

As for B5, the “kd” value worked out at 0.002 s⁻¹ and the “t/2 diss” value came out at 6 min.

As to B6, the “kd” value amounted to 0.0023 s⁻¹ and the “t/2 diss” value stood at 5 min.

On to B7, for which the “kd” value is 0.00393 s⁻¹ and the “t/2 diss” value amounted to 3 min.

Consider B8, for which the “kd” value is 0.00063 s⁻¹ and the “t/2 diss” value was determined as 18 min.

As to B9, the “kd” value was found to be 0.00079 s⁻¹ and the “t/2 diss” value is recorded as 15 min.

Consider B10, for which the “kd” value came to 0.0019 s⁻¹ and the “t/2 diss” value came out at 6 min.

Turning to B11, the “kd” value is 0.000498 s⁻¹ and the “t/2 diss” value is recorded as 23 min.

As for B12, the “kd” value was 0.00371 s⁻¹ and the “t/2 diss” value stood at 3 min.
